The values that follow come from paper PMC7500927.

In data set [1] the target is T1, TrxA-His6-TbRAP1(639-761) (Trypanosoma brucei, UniProt C1JEX5 639-761).
T1 sequence: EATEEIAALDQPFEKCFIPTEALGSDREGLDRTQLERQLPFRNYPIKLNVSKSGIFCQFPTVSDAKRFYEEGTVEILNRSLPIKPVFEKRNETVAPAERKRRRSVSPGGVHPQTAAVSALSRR
The data set is described as follows: EMSA. In general terms: In EMSA bound probe runs differently from free probe, usually more slowly.

Data set [2] addresses T2, TbRAP1(639-761), tag removed (Trypanosoma brucei, UniProt C1JEX5 639-761).
T2 sequence: T1 sequence
Description: NMR HSQC.

Data set [3] deals with T3, TbRAP1(639-761) 5A, tag removed (Trypanosoma brucei, UniProt C1JEX5 639-761, R737A;K738A;R739A;R740A;R741A).
T3 sequence: T1 sequence with R99A, K100A, R101A, R102A, R103A
Description: NMR HSQC.

Data set [4] concerns the target T4, TrxA-His6-TbRAP1(639-761) 5A (Trypanosoma brucei, UniProt C1JEX5 639-761, R737A;K738A;R739A;R740A;R741A).
T4 sequence: T1 sequence with R99A, K100A, R101A, R102A, R103A
The data set is described as follows: EMSA.

In data set [5] the target is T1, TrxA-His6-TbRAP1(639-761). Description: EMSA. This is another data set of the same source.
For data set [6], the target named is T5, TrxA-His6-TbRAP1(639-733) (Trypanosoma brucei, UniProt C1JEX5 639-733).
T5 sequence: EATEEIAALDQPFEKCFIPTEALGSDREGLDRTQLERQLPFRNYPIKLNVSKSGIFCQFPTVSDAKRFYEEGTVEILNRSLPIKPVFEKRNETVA
Description: EMSA.

In data set [7] the target is T6, TrxA-His6-TbRAP1(639-761) 2SA (Trypanosoma brucei, UniProt C1JEX5 639-761, S742A;S744A).
T6 sequence: T1 sequence with S104A, S106A
Description: EMSA.

For data set [8], the target named is T1, TrxA-His6-TbRAP1(639-761). The data set is described as follows: competition.

Where a chain is given by its changes, count along the chain named.

B1: dsDNA 150 bp random (dsDNA)
DNA 1: GTACCGGGCCCCCCCTCGAGGTCGACGGTATCGATAAGCTTGATATCGAATTCAATTCCAAAGAAGCCATGCGCCGTGCAGAGCAGGAAAAAGCCACACGGGAACTCCTCCTGCAACAAACTTCAGCACCACATGCATCATCAGTTACATCCGGGATC
DNA 2: GATCCCGGATGTAACTGATGATGCATGTGGTGCTGAAGTTTGTTGCAGGAGGAGTTCCCGTGTGGCTTTTTCCTGCTCTGCACGGCGCATGGCTTCTTTGGAATTGAATTCGATATCAAGCTTATCGATACCGTCGACCTCGAGGGGGGGCCCGGTAC
As for B1, the binding result in data set [1] is given as “binds”.

B2: random dsDNA 18 bp (NMR) (dsDNA)
DNA 1: TGTTGAGGAGGTGGTGAT
DNA 2: ATCACCACCTCCTCAACA
Regarding B2, the values for the binding result in data set [2] and in data set [3] were “binds” and “no binding”, respectively.

B3: ssDNA 100 nt random (ssDNA)
DNA: AATTCCAAAGAAGCCATGCGCCGTGCAGAGCAGGAAAAAGCCACACGGGAACTCCTCCTGCAACAAACTTCAGCACCACATGCATCATCAGTTACATCCG
For the molecule B3, the binding result is recorded as “no binding” in data set [4], “no binding” in data set [6] and “binds” in data set [7]. Further, the Kd in data set [5] is 0.31 µM.

B4: dsDNA 80 bp random (dsDNA)
DNA 1: CGTGCAGAGCAGGAAAAAGCCACACGGGAACTCCTCCTGCAACAAACTTCAGCACCACATGCATCATCAGTTACATCCGG
DNA 2: CCGGATGTAACTGATGATGCATGTGGTGCTGAAGTTTGTTGCAGGAGGAGTTCCCGTGTGGCTTTTTCCTGCTCTGCACG
On to B4, for which, in data set [5], the binding result was “binds”.

B5: dsDNA 200 bp random (dsDNA)
DNA 1: CGCGCGTAATACGACTCACTATAGGGCGAATTGGGTACCGGGCCCCCCCTCGAGGTCGACGGTATCGATAAGCTTGATATCGAATTCCAAAGAAGCCATGCGCCGTGCAGAGCAGGAAAAAGCCACACGGGAACTCCTCCTGCAACAAACTTCAGCACCACATGCATCATCAGTTACATCCGGATCCACTAGTTCTAG
DNA 2: CTAGAACTAGTGGATCCGGATGTAACTGATGATGCATGTGGTGCTGAAGTTTGTTGCAGGAGGAGTTCCCGTGTGGCTTTTTCCTGCTCTGCACGGCGCATGGCTTCTTTGGAATTCGATATCAAGCTTATCGATACCGTCGACCTCGAGGGGGGGCCCGGTACCCAATTCGCCCTATAGTGAGTCGTATTACGCGCG
Take B5: the binding result in data set [8] is recorded as “binds”.

B6: dsDNA 100 bp random (dsDNA)
DNA 1: GAATTCCAAAGAAGCCATGCGCCGTGCAGAGCAGGAAAAAGCCACACGGGAACTCCTCCTGCAACAAACTTCAGCACCACATGCATCATCAGTTACATCCGGGATCC
DNA 2: GGATCCCGGATGTAACTGATGATGCATGTGGTGCTGAAGTTTGTTGCAGGAGGAGTTCCCGTGTGGCTTTTTCCTGCTCTGCACGGCGCATGGCTTCTTTGGAATTC
As to B6, the binding result in data set [4] and in data set [6] was “no binding” in each case. In data set [5], this molecule returned an equilibrium dissociation constant (Kd) of 21.5 µM.

Usually Kd stands for the free concentration of one partner at which half of the binding sites on the other are occupied at equilibrium, for simple one-to-one binding.
